# Source: the RNAGym collection of RNA variant scans (doi:10.1073/pnas.2313332121)
# B1: TPR t1 (parent)
# chain: GACCAAUCUGCCCUCAGAGCUCGAGAACAUCUUCGGAUGCAGAGGAGGCAGGCUUCGGUGGCGCGAUAGCGCCAACGUCCUCAACCUCCAAUGCAUCCCACCACAUGAUGAUGCCUGAAGAGCCUUGGUUUUUUG
# Variants of: B1
# Experiment: polymerase ribozyme fitness, log enrichment relative to wild type (log ratio); higher = more active; in vitro selection for triplet polymerase activity
# Outline: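 Input and output libraries were sequenced on Illumina after a single in vitro selection round, run in triplicate on PCR-built, transcribed mutant libraries of each subunit of a heterodimeric triplet polymerase ribozyme. Selection annealed libraries to a biotinylated primer, the partner subunit and triplets, incubated them frozen at −7 °C, then gel-excised extended constructs for streptavidin-bead capture and RT-PCR. Genotypes with ≥10 input reads and ≥1 read per output were kept. Fitness is the logarithm, taken in base 2, of genotype enrichment divided by wild-type enrichment, using inverse-variance-weighted replicate averages.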
row,Variant,polymerase ribozyme fitness (log ratio)
1,GACCUAUCUGCCCUCAGAGCUCGAGAACAUCCUCGGAUGCAGAGGAGGCAGGCUUCGGUGGCGCGAUAGCGCCAACGUCCUCAACCUCCAAUGCAUCCCACCACAUGAUGAUGCCUGAAGAGCGUUGUUUUUUUG [A5U U32C C124G G128U],-0.425
2,GACCUAUCUGCCCUCAGAGCUCGAGAACAUCUUCGGAUGCAGAGGAGUCAGGCUUUGGUGGCGCGAUAGCGCCAACGUCCUCAACCUCCAAUACAUCCCACCACAUGAUGAUGCCUGAAGAGCCUUGGUUUUUUG [A5U G48U C56U G93A],-0.937
3,GACCUAUCUGCCCUCAGAGCUCGAGAACAUCUUCGGAUGCAGAGGAGGCAGCCUUCGGUGCCGCGAUAGCGCCAACGUCCUCAACCUCCAAUGCAUCCCACCACAUGAUGAUGCCUGAAGAGCCUUGGAUUUUUG [A5U G52C G61C U129A],-2.2
4,GACCUAUCUGCCCUCAGAGCUCGAGAACAUCUUCGGAUGCAGAGGAGGCAGGCUUCAGUGGCGCGAUAGCGCCAACGUCCUCAACCUCCAAUGCAUCCCACCACAUGAUGAUGCCUGAAGAGCCUUGGUUUUUUG [A5U G57A],-0.568
5,GACCUAUCUGCCCUCAGAGCUCGAGAACAUCUUCGGAUGCAGAUGAGGCAGGCUUCGGUGGCGCGAUAGCGACAACGUCCUCAACCUCCACUGCAUCCCACCACAUGAUGAUCCCUGAAGAGCCUGGAUUUUUUG [A5U G44U C72A A91C G113C U126G G128A],-5.74
6,GACCUAUCUGCCCUCAGAGCUCGAGAACAUCUUCGGAUGCAGAGGAGGCAGGCUUCGGUGGCGCGAUAGCGCCAACGUCCUCAACCUCCAACGCAUCCCACCACAUGAUGAUGCCUGAAGAGCCUUGGUUUUUUG [A5U U92C],-1.56
7,GACCUAUCUGCCCUCAGAGCUCGAGAACAUCUUCGGAUGCAGAGGAGGCAGGCUUCGGUGGCGCGAUAGCGCCAACGUCCUCAACCUCCAAUGCAUCCCACCACAUGAUGAUGCCUGAAUAGCCUUGGUUUUUUG [A5U G120U],0.128
8,GACCUAUCUGCCCUCAGAGCUCGAGAACAUCUUCGGAUGCAGAGGAGGCAGGCUUCGGUGGCGCGAUAUCGCCAACGUCCUCAACCUCCACUGCAUCCCACCACAUGAUGAUACCCGAAGAGCCUUGGUCUUUUG [A5U G69U A91C G113A U116C U130C],-5.42
9,GACCUAUCUGCCCUCAGAGCUCGAGAACAUCUUCGGAUGCAGAGGAGGCAGGCUUCGGUGGCGCGAUAGCACCAACGUCCUCAACCUCCAAUGCAUCUCACCACAUGAUGAUGCCUGAAGAGCCUUAUUUUUUUG [A5U G71A C98U G127A G128U],-5.31
10,GACCUAACUGCCCUCAGAGCUCGAGAACAUCUUCGGAUGGAGAGGAGGCAGGCUGUGGUAGCGCGAUAGCGCCAACGUCCUCAACCUCCAAUGCAUCCCACCACAUGAUGAUGCCUGAAGAGCCUUGGUUUUUUG [A5U U7A C40G U55G C56U G60A],-3.04
11,GACCUAUCUGCCCUCAGAGCUCGAGAACAUCUUCGGAUGCAGAGGAGGCAGGCUUCGGUGGCGCGAUAGCGCCAACGUCCUCAACCUCCAAUGCAUCCCACCACAUGAUGAUCCCUGAAGAGCCGUGGUUUAUUG [A5U G113C U125G U132A],-1.99
12,GACCUAUCUGCCCUCAGAGCUCGAGAACAUCUUCGGAUGCAGAGGAGGCAGUCUUCGGUGGCGCGAUAGCGCCAACGUCCUCAACCUCCAAUGCAUCCCACCACAUGAUGAGGCCUGAAGAGCCUUGGUUUUUUG [A5U G52U U112G],-0.382
13,GACCUAUCUGCCCUCAGAGCUCGAGAACAUCUUCGGAUGCAGAGGAGGCAGGCUUCAGUGGCGCGAUAGUGCCAACGUCCUCAACCUCCAAUGCAUCCCACCACAUGAUGAUGCCUGAAGAGCCUUGGUUUUUUG [A5U G57A C70U],-1.67
14,GACCUAUCUGCCCUCAGAGCUCGAGAACAUCUUCGGAUUCAGAGGACGCAGGCUUCGGUGGCGCGAUAGCGUCAACGUCCUCAACCUCCAAUGCAUCCCACCACAUGAUGAUGCCUGAAGAGCCUUGGUUUUUUG [A5U G39U G47C C72U],-4.21
15,GACCUAUCUGCCCUCAGAGCUCGAGAACAUCUUCGGAUGCAGAGGAGGCAGGCUUCGGUGGCGCGAUAGCGCCAACGUCCUCAACCUCCAAUGCAACCCACCACAUGAUGAUGCCUGAAGAGCCUUGGUUUUUUG [A5U U96A],-0.893
16,GACCUAUCUGCCCUCAGAACUCGAGAACAUCUUCGGAUGCAGAGGAGGCAGGCUUCUGUGGCGCGAUAGCGCCAACGGCCUCAACCUCCAAUGCAUCCCACCACAUGAUGAUUCCUGAAGAGCCUUGGUUUUUUU [A5U G19A G57U U78G G113U G135U],-4.71
17,GACCUAUCUGCCCUCAGAGCUCGAGAACAUCUUCGGAUGCAGAGGAGGCAGGCUUCGGUGGCGCGAUAGCCCCAACGUCCUCAACCUCCAAUGCAUCCCACCACAGGAUGAUGCCUGAAGAGCCUUGGUUUUUUG [A5U G71C U106G],-3.95
18,GACCUAUCUGCCCUCAGAGCUCGAGAACAUCUUCGGAUGCAGAGGACGCAGGCUUCGGUGGUGCGAUAGCGCCAACGUCCUCAACCUCCAAUGCAUCCCACCACAUGAUGAUCCCUGUAGAGCCUUGGUUUUUUG [A5U G47C C62U G113C A118U],-4.96
19,GACCUAUCUGCCCCCAGAGCUCGAGAACAUCUUCGGAUGCAGAGGAGGCUGGCUUCGGUGGCGCGAUAGCGACAACGUCCUCAACCUCCAAUGCAUCCCACCACAUGAUGAUGCCUGAAGAGCAUUGGUUGUUUG [A5U U14C A50U C72A C124A U131G],-1.27
20,GACCUAUCUGCCCUCAGAGCUCGAGAACAUCUUCGGAUUCAGAGUAGGCAGGCUUCGGUGGCGCGAUAGCGCCAACGUCCUAAACCUCCAAUGCAUCCCACCACAUGAUGAUGCCUGAAGAGACUUGGUUUUUUG [A5U G39U G45U C82A C123A],-2.8
21,GACCUAUCUGCCCUCAGAGCUCGAGAACAUCUUCGGAUGCAGAGGAGGCAGGCUUCGGUGGCUCGAUAGCGCCAUCGUCCUCAACCUCCAAUGCAUCCCACCACAUGAUGAUGCCUGAAGAGCCUUGGUUUUUUG [A5U G63U A75U],-0.67

row,Variant,polymerase ribozyme fitness (log ratio)
1,GACCACUCUGCCCUCAGCGCUCGAGAACAUCUUCGGAUGCAGAGGAGGUAGGCUUCGGUGGCGCGAUAGUGCCAACGUCCUUAACCUCCAAUGCAUCCCACCACAUGAUGAUGCCUGAAGAGCCUUGGUUUUUUG [A6C A18C C49U C70U C82U],-5.19
2,GACCUAUCUGCCCUCAGAGCUCGAGAACAUCUUCGGAUGCAGAGCAGGCAGGCUUCGGUAGCGCGAUAGCGCCAACGUCCUCAACCUCCAAUGCAUCCCACCACAUGAUGAUGCCUGAAGAGCCUUGGUUUUUUG [A5U G45C G60A],-0.71
3,GACCUAUCUGCCCUCAGAGCUCGAGAACAUCUUCGGAUGCACAGGAGGCAGGCUUCGGUGGCGCGAUAGCGCCAACGUCCUCAACCACCAGUGCAUCCCACCACAUGAUGAUGCCUGAAGAGCCUUGGUUUUUUG [A5U G42C U87A A91G],-1.35
4,GACCUAUCUGCCCUCAGAGCUCGAGAACAUCUUCGGAUGCAGAGGAGGCAGGCUUCGGUGUCGCGAUAGCGCCAACGUCCUCAACCUCCAAUGCAUCCCACCACAUGAUGAUGCCUGAAGAGCCUUGGUUUUUUG [A5U G61U],-0.313
5,GACCUAUCUGCCCUCAGAGCUCGAGAACAUCUUCGGAUGCAGAGGAGGCAGGCUUCGGUGGCGCGAUAGCCCCAACGUCCUCAACCUCCAAUGCAUCCCACCACAUGAUGAUGCCUGAAGAGCCUUGGUUUUUUG [A5U G71C],-2.73
6,GACCUAUCUGCCCUCAGAGCUCGAGAACAUCUUCGGAUGCAGAGGAGGCAGGCUUCGGUGGCGCGAUAGCGCCAACGUCCACAACCUCCCACGCAUCCCACCACAUGAUGAUGCCUGAAGAGCCUUGGUUUUUUG [A5U U81A A90C U92C],-3.49
7,GACCUAUCUGCCCUCAGAGCUCGAGAACAUCUUCGGAUGCAGAGGAGGCAUGCUUCGGUGGCGCGAUAGCGCCAACUUCCUCAACCUCCAAUGCAUCCCACCACAUGAUGAUGCCUGAAGAGCCUUGGUUUUUUG [A5U G51U G77U],-4.52
8,GACCUAUCUGCCCUCAGAGCUCGAGAACAUCUUCGGAUGCAGAGGAGGCAGGCUUCGGUGGCUCCAUAGCGCCAACGUCUUCAAUCUCCAAUGCGUUCCACCACAUGAUGAUGCUUGAAGAGCCUUGGUUUUUUG [A5U G63U G65C C80U C85U A95G C97U C115U],-6.48
9,GACCUAUCUGCCCUCAAAGCUCGAGAACAUCUUCGGAUGCAGAGGAGGAAGGCUUCGGUAGCGCGAUAGCGCCAACGUCCUCAACCUCUAAUGCAUCCCACCACAUGAUGAUGCCUGAAGAGCCUUGGUUUUUUG [A5U G17A C49A G60A C89U],-5.58
10,GACCUAUCUGCCCUCAGAGCUCGAGAACAUCUCCGGAUGCAGAGGAGGCAGGCUUCGGUGGCGCGAUAGCGCCAACGUCCUCAACCUCCAAUGCAUCCCACCACAUGAUGAUGCCUGAAGAGCCUUGGUUUUUUG [A5U U33C],-3.68
11,GACCUAUCUGCCCUCAGAGCUCGAUAACAUCUUCGGAUGCAGAGGAGGCAGGUUUCGGUGGCGCGAUACCGCCAACGUCCUCAACCUCCAAUGUAUCCCACCACAUGAUGAUGCCUGAAGAGCCUUGGUUUUUUG [A5U G25U C53U G69C C94U],-7.17
12,GACCUAUCUGCCCUCAGAGCUCGAGAACAUCUUCGGAUGCAGAGGAGGCAAGCUUCGGUGGCGCGAUAGCGCCAACGUCCUCAACCUCCAAUGCAUCCCACCACAUGAUGAUGCCUGAAGAGCCUUGGUUUUUUG [A5U G51A],-3.23
13,GACCUAUCUGCCCUCAGAGCUCGAGAACAUCUUCGGAUGCAGAGGAGUCAGGCUUCGGUGGCGCGAUAGCGCCAACGUCCUCAACCUCCAAUGCAUCCCACCACAUGAUGAUGCCUGAAGAGCCUUGGUUUUUUG [A5U G48U],-1.69
14,GACCUAUCUGCCCUCAGAGCUCGAGAACAUCUUCGGAUGCAGAGGAGGCAGGCUUCGGUGGCGCGAUAGCGCCAACGUCCUCAACCUCCAAUGCAUCCCACCACAUGAUGAGGCCUGAAGAGCCUUGGUUUUUUG [A5U U112G],-0.587
15,GACCUAUCUGCCCUCAGAGCUCGAGAACAUCUUCGGAUGCAGAGUAGGCAGGCUUCGGUGGCGCGAUAGCGCCAACGUCCUCAACCUCCAAUGCAUCCCACCACAUGAUGAUGCCUGAAGAGCCUUGGUUUUUUG [A5U G45U],-1.13
16,GACCUAUCUGCCCUCAGAGCUCGAGAACAUCUUCGGAUGCAGAGAAGGCAGGCUUCGGUGGCGCGAUAGCGCCAACGUCCUCAACCUCCAAUGCAUCCCACCACAUGAUGAUGCCUGAAGAGCCUUGGUUUUUUG [A5U G45A],-1.11
17,GACCUAUCUGCCCUCAGAGCUCGAGAACAUCUUCGGAUGCAGAGGAGGCAGGCUUCGGUGGCUCGAUAGCGCCAACGUCCUCAACCUCCAAUGCAUCCCACAACAUGAUGAUGCCUGAAGAGCCUUGGUUUUUUG [A5U G63U C102A],-3.19
18,GACCUAUCAGCCCUCAGAGCUCGAGAACAUCUUCGGAUGCAGAGGAGUGAGGCUUCGGUGGCGCGAUAGCGCCAACGUCCUCAACCUCCAAUGCAUCCCAACACAUGAUGAUGCCUGAAGAGCCUUGGUUUUUUG [A5U U9A G48U C49G C101A],-1.73
19,GACCUAUCUGCCCUCAGAGCUCGAGAACAUCUUCGGAUGCAGAGGAGGCAGGCUUCGGUGGCGCGAUAGCGCCAACGUCCUCAACCUCCAAUGCAUCCCACCACAUGAUGAUGCCUGAAGAGCCUUGGAUUUUUG [A5U U129A],-1.34
20,GACCUAUCUGCCCUCAGAGCUCGAGAACAUCUUCGGAUGCAGAGGAGGCAGGCUUCGGUGGCGCGAUAGCGCCAACGUCCUCAACCGCCAAUGCAUCCCACCACAUGAUGAUGCCUGAAGAGCCUUGGUUUUUUG [A5U U87G],-0.121
21,GACCUAUCUGCCCUCAGAGCUCGAGAACAUCUUCGGAUGCAGAGGAGGCAGGCUUCGGUGGCGCGAUAGCGCCAACGUCCUCAACCACCAAUGCAUCCCACCACAUGAUGAUGCCUGAAGAGCCUUGGUUUUUUG [A5U U87A],-0.245
